Data taken from the supplement of paper PMC5998384.

What was measured:
[1] = tested on: HeLa Kyoto; experiment: thermal stability score vs G1/S (z-score of summed log2 fold changes over temperatures); higher = more thermally stable than in G1/S
[2] = tested on: HeLa Kyoto; experiment: solubility in G1/S (NP-40 vs SDS abundance) (log2 ratio); higher = more soluble; conditions: cell cycle stage: G1/S
[3] = tested on: HeLa Kyoto; experiment: melting temperature (median over replicates), in situ; higher = more thermally stable
[4] = tested on: HeLa Kyoto; experiment: solubility change mitosis vs G1/S (difference of NP-40 vs SDS log2 ratios) (log2 ratio difference); higher = more soluble in mitosis
[5] = cell cycle stage: early G1 (4.5 h after nocodazole release)
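For melting temperature (median over replicates), in situ in this document: HeLa Kyoto cells synchronized by double thymidine or nocodazole block, proteins quantified by TMT10plex mass spectrometry, three independent biological replicates.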
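For solubility change mitosis vs G1/S (difference of NP-40 vs SDS log2 ratios) in this document: synchronized HeLa Kyoto cells (double thymidine block for G1/S, nocodazole release for mitosis), protein amounts in NP-40 versus SDS lysates quantified by mass spectrometry, three biological replicates.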
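For solubility in G1/S (NP-40 vs SDS abundance) in this document: HeLa Kyoto cells arrested at G1/S by double thymidine block, proteins quantified by TMT10plex mass spectrometry in mild NP-40 versus SDS extracts, three biological replicates.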
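For thermal stability score vs G1/S (z-score of summed log2 fold changes over temperatures) in this document: synchronized HeLa Kyoto cells, proteins quantified by TMT10plex mass spectrometry, three biological replicates, mitosis taken 0.5 h after nocodazole release, G1/S directly after double thymidine block.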

Q: How did the thermal stability score [1, 5] turn out when “MAARVLIIGSGGREHTLAWKLAQSHHVKQVLVAPGNAGTACSEKISNTAISISDHTALAQFCKEKKIEFVVVGPEAPLAAGIVGNLRSAGVQCFGPTAEAAQLESSKRFAKEFMDRHGIPTAQWKAFTKPEEACSFILSADFPALVVKASGLAAGKGVIVAKSKEEACKAVQEIMQEKAFGAAGETIVIEELLDGEEVSCLCFTDGKTVAPMPPAQDHKRLLEGDGGPNTGGMGAYCPAPQVSNDLLLKIKDTVLQRTVDGMQQEGTPYTGILYAGIMLTKNGPKVLEFNCRFGDPECQVILPLLKSDLYEVIQSTLDGLLCTSLPVWLENHTALTVVMASKGYPGDYTKGVEITGFPEAQALGLEVFHAGTALKNGKVVTHGGRVLAVTAIRENLISALEEAKKGLAAIKFEGAIYRKDVGFRAIAFLQQPRSLTYKESGVDIAAGNMLVKKIQPLAKATSRSGCKVDLGGFAGLFDLKAAGFKDPLLASGTDGVGTKLKIAQLCNKHDTIGQDLVAMCVNDILAQGAEPLFFLDYFSCGKLDLSVTEAVVAGIAKACGKAGCALLGGETAEMPDMYPPGEYDLAGFAVGAMERDQKLPHLERITEGDVVVGIASSGLHSNGFSLVRKIVAKSSLQYSSPAPDGCGDQTLGDLLLTPTRIYSHSLLPVLRSGHVKAFAHITGGGLLENIPRVLPEKLGVDLDAQTWRIPRVFSWLQQEGHLSEEEMARTFNCGVGAVLVVSKEQTEQILRDIQQHKEEAWVIGSVVARAEGSPRVKVKNLIESMQINGSVLKNGSLTNHFSFEKKKARVAVLISGTGSNLQALIDSTREPNSSAQIDIVISNKAAVAGLDKAERAGIPTRVINHKLYKNRVEFDSAIDLVLEEFSIDIVCLAGFMRILSGPFVQKWNGKMLNIHPSLLPSFKGSNAHEQALETGVTVTGCTVHFVAEDVDAGQIILQEAVPVKRGDTVATLSERVKLAEHKIFPAALQLVASGTVQLGENGKICWVKEE [GART]” was run?
A: 0.0198

Q: What about the thermal stability score ([1]; cell cycle stage: mitosis) of the same sequence?
A: 0.936

Q: And the “solubility in G1/S (log2)” value [2]?
A: 0.201

Q: And the melting temperature ([3]; cell cycle stage: G1/S)?
A: 50.8 °C

Q: What about the melting temperature ([3]; cell cycle stage: mitosis) of the same sequence?
A: 51 °C

Q: And the “solubility change mitosis (log2)” value [4]?
A: -0.137

Q: For “MAPGQLALFSVSDKTGLVEFARNLTALGLNLVASGGTAKALRDAGLAVRDVSELTGFPEMLGGRVKTLHPAVHAGILARNIPEDNADMARLDFNLIRVVACNLYPFVKTVASPGVTVEEAVEQIDIGGVTLLRAAAKNHARVTVVCEPEDYVVVSTEMQSSESKDTSLETRRQLALKAFTHTAQYDEAISDYFRKQYSKGVSQMPLRYGMNPHQTPAQLYTLQPKLPITVLNGAPGFINLCDALNAWQLVKELKEALGIPAAASFKHVSPAGAAVGIPLSEDEAKVCMVYDLYKTLTPISAAYARARGADRMSSFGDFVALSDVCDVPTAKIISREVSDGIIAPGYEEEALTILSKKKNGNYCVLQMDQSYKPDENEVRTLFGLHLSQKRNNGVVDKSLFSNVVTKNKDLPESALRDLIVATIAVKYTQSNSVCYAKNGQVIGIGAGQQSRIHCTRLAGDKANYWWLRHHPQVLSMKFKTGVKRAEISNAIDQYVTGTIGEDEDLIKWKALFEEVPELLTEAEKKEWVEKLTEVSISSDAFFPFRDNVDRAKRSGVAYIAAPSGSAADKVVIEACDELGIILAHTNLRLFHH [ATIC]”, which thermal stability score [1, 5] is on record?
A: -0.0275

Q: And the thermal stability score ([1]; cell cycle stage: mitosis)?
A: 1.16

Q: What about the “solubility in G1/S (log2)” value [2] of the same sequence?
A: 0.0708

Q: What about the melting temperature ([3]; cell cycle stage: G1/S) of the same sequence?
A: 54.4 °C

Q: And the melting temperature ([3]; cell cycle stage: mitosis)?
A: 54.4 °C

Q: What about the “solubility change mitosis (log2)” value [4] of the same sequence?
A: -0.093

Q: Which results are given for “MSRYLLPLSALGTVAGAAVLLKDYVTGGACPSKATIPGKTVIVTGANTGIGKQTALELARRGGNIILACRDMEKCEAAAKDIRGETLNHHVNARHLDLASLKSIREFAAKIIEEEERVDILINNAGVMRCPHWTTEDGFEMQFGVNHLGHFLLTNLLLDKLKASAPSRIINLSSLAHVAGHIDFDDLNWQTRKYNTKAAYCQSKLAIVLFTKELSRRLQGSGVTVNALHPGVARTELGRHTGIHGSTFSSTTLGPIFWLLVKSPELAAQPSTYLAVAEELADVSGKYFDGLKQKAPAPEAEDEEVARRLWAESARLVGLEAPSVREQPLPR [RDH13]”?
A: thermal stability score [1, 5]: -0.911; thermal stability score ([1]; cell cycle stage: mitosis): -0.156; solubility in G1/S (log2) [2]: 0.415; melting temperature ([3]; cell cycle stage: G1/S): 51.1 °C; melting temperature ([3]; cell cycle stage: mitosis): 51.6 °C; solubility change mitosis (log2) [4]: 0.0735

Q: With “MEEGGNLGGLIKMVHLLVLSGAWGMQMWVTFVSGFLLFRSLPRHTFGLVQSKLFPFYFHISMGCAFINLCILASQHAWAQLTFWEASQLYLLFLSLTLATVNARWLEPRTTAAMWALQTVEKERGLGGEVPGSHQGPDPYRQLREKDPKYSALRQNFFRYHGLSSLCNLGCVLSNGLCLAGLALEIRSL [TMEM205]” as the sequence, how does the thermal stability score [1, 5] read?
A: -2.96

Q: And the thermal stability score ([1]; cell cycle stage: mitosis)?
A: -1.84

Q: And the “solubility in G1/S (log2)” value [2]?
A: 0.0662

Q: What about the melting temperature ([3]; cell cycle stage: mitosis) of the same sequence?
A: 55.9 °C

Q: And the “solubility change mitosis (log2)” value [4]?
A: -0.294

Q: Which thermal stability score [1, 5] does the source give for “MATSRYEPVAEIGVGAYGTVYKARDPHSGHFVALKSVRVPNGGGGGGGLPISTVREVALLRRLEAFEHPNVVRLMDVCATSRTDREIKVTLVFEHVDQDLRTYLDKAPPPGLPAETIKDLMRQFLRGLDFLHANCIVHRDLKPENILVTSGGTVKLADFGLARIYSYQMALTPVVVTLWYRAPEVLLQSTYATPVDMWSVGCIFAEMFRRKPLFCGNSEADQLGKIFDLIGLPPEDDWPRDVSLPRGAFPPRGPRPVQSVVPEMEESGAQLLLEMLTFNPHKRISAFRALQHSYLHKDEGNPE [CDK4]” here?
A: 0.0522

Q: And the thermal stability score ([1]; cell cycle stage: mitosis)?
A: -0.366

Q: And the “solubility in G1/S (log2)” value [2]?
A: 0.218

Q: What about the melting temperature ([3]; cell cycle stage: G1/S) of the same sequence?
A: 52.7 °C

Q: What about the melting temperature ([3]; cell cycle stage: mitosis) of the same sequence?
A: 52.4 °C

Q: And the “solubility change mitosis (log2)” value [4]?
A: -0.121
